Values of other authors as cited in publication PMC7955094.

Assays:
[1] = target: His37 (UniProt position 37, IIGILHLILWI); details: AM2 tetramer
[2] = target: His19 (UniProt position 19, ILSALHFMAWT); details: membrane-bound H27A BM2 tetramer

Row | Substance | pKa [1] | pKa [2]
1 | Influenza A virus M2 protein (AM2) proton channel (Influenza A virus (strain not stated)) | 5.9 | 
2 | Influenza B virus M2 protein (BM2) H27A mutant (Influenza B virus (strain of the quoted study not stated); H27A) |  | 5.6
